The text below walks through data of publication PMC6561789 (Molecular microbiology, 2019).

The data set “AUC” deals with the molecule itself. The data set can be described thus: AUC.
The data set “SEC” concerns the molecule itself. The data set can be described thus: SEC. (In general: Size exclusion chromatography separates by hydrodynamic size, large species first.)

B1: HigA antitoxin (Proteus vulgaris, Rts1 plasmid), wild type (natural protein)
chain: MRQFKVSHPGEMIARDLEDMGVSGRRFAHNIGVTPATVSRLLAGKTALTPSLSIRIAAALGSTPEFWLRLQSNYDLRQLENQIDTSGIVLYGESNEQQQNAQEH
As to B1, the “stoichiometry N” value in the data set “AUC” stood at 2.

B2: HigA R40A variant (Proteus vulgaris, Rts1 plasmid) (natural protein)
chain: MRQFKVSHPGEMIARDLEDMGVSGRRFAHNIGVTPATVSALLAGKTALTPSLSIRIAAALGSTPEFWLRLQSNYDLRQLENQIDTSGIVLYGESNEQQQNAQEH
On to B2, for which, in “SEC”, the “stoichiometry N” value came to 2.

Broadly, the stoichiometry N is a count of units in the complex or per binding partner.
